# Target: T1, biotinylated anti-ABD goat antibody
# T1 construct: also called Anti-ABD surface
# Assay: SPR (Biacore 2000), periplasm diluted 15x over anti-ABD surface
# Text: SPR analysis of periplasmic samples: A selection of Aβ peptide binding polypeptides was subjected to an analysis of the response against biotinylated hAβ₁₋₄₀ using a Biacore 2000 instrument (GE Healthcare). Biotinylated anti-ABD goat antibody (produced in-house) and N-terminally biotinylated hAβ₁₋₄₀ (AnaSpec cat. no. AS-24648) were immobilized in separate flow cells on a streptavidin coated chip (Biacore Sensor Chip SA, cat. no. BR100032) using HBS-EP as running buffer (0.01 M HEPES pH 7.4, 0.15 M NaCl, 3 mM EDTA, 0.005% v/v Surfactant P20, GE Healthcare, cat. no. BR100188). The ligand immobilization levels on the surfaces were approximately 2000 RU for the anti-ABD antibody and 225 RU for hAβ₁₋₄₀. One flow cell surface on the chip was used as blank during analyte injections. HBS-EP was used as running buffer and the flow rate was 25 μl/min. The analytes, i.e. periplasmic preparations of Aβ peptide binding polypeptides as described above, were each diluted 15× in HBS-EP buffer and injected for 10 min, followed by dissociation in running buffer for 5 min. After dissociation, the surfaces were regenerated with 2 pulses of 10 mM glycin pH 2.0. […]
# SPR analysis of periplasmic samples: The interactions of a subset of Z variants with anti-ABD goat antibody and hAβ₁₋₄₀ were analyzed in a Biacore instrument by injecting dilutions of periplasmic samples.
binder,measurement,value
"LAEAKVLANRELDKYGVSDYYKNLINNAKTVEGVKALIDEILAALP (other, periplasm containing ABD only; also called negative control) [ABD (albumin binding domain GA3 from streptococcal Protein G), periplasm control]",Response RU,19.8 RU
